Measured values reported in paper PMC4011586.

Target: human platelet-derived growth factor alpha receptor (human (endogenous in U373)) (UniProt P16234)
Chain of UniProt P16234 (P16234 24-1089): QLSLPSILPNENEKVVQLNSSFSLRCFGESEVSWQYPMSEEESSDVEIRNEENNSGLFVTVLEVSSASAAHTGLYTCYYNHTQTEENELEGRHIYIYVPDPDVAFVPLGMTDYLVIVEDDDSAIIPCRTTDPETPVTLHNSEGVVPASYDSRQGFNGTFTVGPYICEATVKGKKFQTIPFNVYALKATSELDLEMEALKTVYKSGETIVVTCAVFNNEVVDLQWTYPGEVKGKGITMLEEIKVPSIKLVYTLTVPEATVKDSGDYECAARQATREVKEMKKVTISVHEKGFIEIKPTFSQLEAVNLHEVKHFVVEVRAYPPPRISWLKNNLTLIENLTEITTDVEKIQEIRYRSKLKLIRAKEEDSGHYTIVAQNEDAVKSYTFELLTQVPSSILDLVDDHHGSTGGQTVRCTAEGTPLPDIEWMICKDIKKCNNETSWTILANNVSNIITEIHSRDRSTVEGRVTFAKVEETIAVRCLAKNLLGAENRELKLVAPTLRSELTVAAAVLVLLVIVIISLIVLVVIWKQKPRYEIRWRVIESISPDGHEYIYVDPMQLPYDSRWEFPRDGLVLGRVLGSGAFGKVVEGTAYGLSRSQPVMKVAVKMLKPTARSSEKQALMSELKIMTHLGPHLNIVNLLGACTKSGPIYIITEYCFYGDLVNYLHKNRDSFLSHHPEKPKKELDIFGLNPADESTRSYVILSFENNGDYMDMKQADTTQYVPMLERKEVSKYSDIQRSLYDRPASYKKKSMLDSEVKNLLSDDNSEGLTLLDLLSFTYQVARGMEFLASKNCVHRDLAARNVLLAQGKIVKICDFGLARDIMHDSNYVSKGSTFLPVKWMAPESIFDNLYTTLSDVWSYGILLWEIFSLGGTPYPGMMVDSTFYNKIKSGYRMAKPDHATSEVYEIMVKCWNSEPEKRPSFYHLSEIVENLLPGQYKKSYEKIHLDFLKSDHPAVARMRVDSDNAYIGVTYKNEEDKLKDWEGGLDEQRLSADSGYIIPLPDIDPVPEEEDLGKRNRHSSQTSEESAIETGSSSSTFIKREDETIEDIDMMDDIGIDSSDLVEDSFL

“recombinant HCMV glycoprotein B (from UniProt P13201 23-907) (ligand)” was tested, and the phosphorylation of PDGFRα in U373 cells stimulated with recombinant gB, cell based ELISA, relative to PDGF-AA (100%) was 50%.
